# Values quoted from earlier work in patent US8460910B2 (Illumina Cambridge Limited, priority 2003, dated 2013).
# B1: A486Y variant of Pfu DNA polymerase: Pfu DNA polymerase with A486Y mutation (Evans et al. 2000) (protein, UniProt P61875 1-775, looked up, variant A486Y)
# DNA polymerase: MILDVDYITEEGKPVIRLFKKENGKFKIEHDRTFRPYIYALLRDDSKIEEVKKITGERHGKIVRIVDVEKVEKKFLGKPITVWKLYLEHPQDVPTIREKVREHPAVVDIFEYDIPFAKRYLIDKGLIPMEGEEELKILAFDIETLYHEGEEFGKGPIIMISYADENEAKVITWKNIDLPYVEVVSSEREMIKRFLRIIREKDPDIIVTYNGDSFDFPYLAKRAEKLGIKLTIGRDGSEPKMQRIGDMTAVEVKGRIHFDLYHVITRTINLPTYTLEAVYEAIFGKPKEKVYADEIAKAWESGENLERVAKYSMEDAKATYELGKEFLPMEIQLSRLVGQPLWDVSRSSTGNLVEWFLLRKAYERNEVAPNKPSEEEYQRRLRESYTGGFVKEPEKGLWENIVYLDFRALYPSIIITHNVSPDTLNLEGCKNYDIAPQVGHKFCKDIPGFIPSLLGHLLEERQKIKTKMKETQDPIEKILLDYRQKYIKLLANSFYGYYGYAKARWYCKECAESVTAWGRKYIELVWKELEEKFGFKVLYIDTDGLYATIPGGESEEIKKKALEFVKYINSKLPGLLELEYEGFYKRGFFVTKKRYAVIDEEGKVITRGLEIVRRDWSEIAKETQARVLETILKHGDVEEAVRIVKEVIQKLANYEIPPEKLAIYEQITRPLHEYKAIGPHVAVAKKLAAKGVKIKPGMVIGYIVLRGDGPISNRAILAEEYDPKKHKYDAEYYIENQVLPAVLRILEGFGYRKEDLRYQKTRQVGLTSWLNIKKS
# System: ddNTPs
# Conditions: cited from earlier work
molecule,measurement,value
B1,improvement of ratio of ddNTP/dNTP in sequencing ladders compared to wild type,150 fold
